Test results from paper PMC8133803.

Biological target: SARS-CoV-2 spike S1+S2 ECD-His (SARS-CoV-2 (2019-nCoV), UniProt P0DTC2 16-1213)
Assay: SPR

CACCAATATTTACGTTCTACTCTCCAATA (ssDNA, 5' BiotinTEG) [apt-NS]
binding result: no binding
